Test results as given in PMC10173277.
Read-outs that look alike come from different tables or passages of the source.

Experiments:
[1] = biological target: collagen type I, bovine tendon, as absorbable collagen sponge (ACS) (bovine) (UniProt P02453); assay: absorption and release from a collagen sponge, protein in the supernatant by micro-BCA; ACS (150 μL) treated with the fragment in PBS for 1 h at room temperature (75 μg; for ColG-FNIII12-14 also 37.5 and 15 μg); release into 150 μL PBS at 37 °C, supernatant taken and PBS refreshed at 36, 60, 120 h
Sequence of UniProt P02453 (P02453 162-1217, chain 1 of 2): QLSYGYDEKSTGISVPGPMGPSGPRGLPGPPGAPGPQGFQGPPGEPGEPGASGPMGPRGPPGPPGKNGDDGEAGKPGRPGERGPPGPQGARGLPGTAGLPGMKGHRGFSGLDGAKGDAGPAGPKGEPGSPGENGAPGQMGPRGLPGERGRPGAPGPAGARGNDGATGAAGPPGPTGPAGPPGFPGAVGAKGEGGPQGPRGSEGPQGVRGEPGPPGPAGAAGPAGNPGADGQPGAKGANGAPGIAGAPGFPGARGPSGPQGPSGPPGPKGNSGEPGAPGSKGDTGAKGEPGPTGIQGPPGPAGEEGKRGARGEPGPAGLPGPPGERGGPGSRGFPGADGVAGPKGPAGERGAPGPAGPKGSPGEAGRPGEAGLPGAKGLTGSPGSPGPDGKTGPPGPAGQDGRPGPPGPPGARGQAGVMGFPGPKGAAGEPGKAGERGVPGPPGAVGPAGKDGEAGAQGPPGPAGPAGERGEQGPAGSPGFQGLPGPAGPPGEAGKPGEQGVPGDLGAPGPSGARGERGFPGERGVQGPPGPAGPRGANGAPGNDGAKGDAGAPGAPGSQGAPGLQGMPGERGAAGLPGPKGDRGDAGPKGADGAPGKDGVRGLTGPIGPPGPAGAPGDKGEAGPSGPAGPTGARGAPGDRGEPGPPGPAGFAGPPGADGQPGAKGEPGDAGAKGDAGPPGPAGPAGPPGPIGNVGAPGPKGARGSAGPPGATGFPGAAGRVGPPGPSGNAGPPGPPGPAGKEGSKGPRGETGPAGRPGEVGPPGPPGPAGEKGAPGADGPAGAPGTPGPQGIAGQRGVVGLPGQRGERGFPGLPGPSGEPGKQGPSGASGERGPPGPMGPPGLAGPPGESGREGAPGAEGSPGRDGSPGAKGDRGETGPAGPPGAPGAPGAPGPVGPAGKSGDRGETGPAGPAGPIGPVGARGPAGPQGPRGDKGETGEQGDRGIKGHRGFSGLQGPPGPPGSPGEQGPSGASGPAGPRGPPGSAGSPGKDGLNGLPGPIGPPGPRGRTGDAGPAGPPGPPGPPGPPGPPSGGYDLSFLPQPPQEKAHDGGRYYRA
Sequence of UniProt P02453 (P02465 80-1117, chain 2 of 2, further chain): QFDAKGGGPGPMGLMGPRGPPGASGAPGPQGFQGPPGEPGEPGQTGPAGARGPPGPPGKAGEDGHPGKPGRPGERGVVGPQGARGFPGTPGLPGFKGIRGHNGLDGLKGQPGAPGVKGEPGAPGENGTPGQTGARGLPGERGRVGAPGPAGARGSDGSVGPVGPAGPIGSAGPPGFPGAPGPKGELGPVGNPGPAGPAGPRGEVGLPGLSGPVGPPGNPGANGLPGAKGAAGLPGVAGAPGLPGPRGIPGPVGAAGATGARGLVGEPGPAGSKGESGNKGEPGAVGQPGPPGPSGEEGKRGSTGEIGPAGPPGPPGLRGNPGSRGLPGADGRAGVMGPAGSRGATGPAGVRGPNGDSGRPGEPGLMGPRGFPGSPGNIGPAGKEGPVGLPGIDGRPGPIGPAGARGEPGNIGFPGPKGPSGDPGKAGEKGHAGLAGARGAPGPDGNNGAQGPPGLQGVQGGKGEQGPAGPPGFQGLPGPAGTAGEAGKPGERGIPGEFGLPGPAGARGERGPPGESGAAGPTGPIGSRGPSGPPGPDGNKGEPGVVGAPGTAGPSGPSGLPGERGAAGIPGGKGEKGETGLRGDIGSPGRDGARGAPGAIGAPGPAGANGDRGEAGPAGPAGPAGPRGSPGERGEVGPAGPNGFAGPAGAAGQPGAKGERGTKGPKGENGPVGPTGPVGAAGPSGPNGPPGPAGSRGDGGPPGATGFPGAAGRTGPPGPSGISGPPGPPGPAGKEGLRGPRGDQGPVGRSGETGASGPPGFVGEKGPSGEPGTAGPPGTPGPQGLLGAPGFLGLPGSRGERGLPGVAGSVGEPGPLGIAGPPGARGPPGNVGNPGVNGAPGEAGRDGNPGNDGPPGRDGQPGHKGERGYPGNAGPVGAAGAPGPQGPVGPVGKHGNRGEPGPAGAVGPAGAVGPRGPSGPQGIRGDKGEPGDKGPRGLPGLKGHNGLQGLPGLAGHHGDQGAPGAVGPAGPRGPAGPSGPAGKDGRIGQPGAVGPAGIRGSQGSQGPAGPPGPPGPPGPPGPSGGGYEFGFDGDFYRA

[2] = biological target: collagen type I, bovine tendon, as absorbable collagen sponge (ACS) (bovine) (UniProt P02453)
[3] = biological target: collagen type I, bovine tendon, as absorbable collagen sponge (ACS) (bovine) (UniProt P02453); remark: listed apart in the source
[4] = biological target: ColG-FNIII12-14 treated collagen scaffold (Clostridium histolyticum | not stated | bovine) (UniProt P02453); assay: absorption and release of fluorescent rhBMP-2 from a collagen sponge, fluorescence of the supernatant; Dylight 488 rhBMP-2 (0.1, 0.5, 1, 2 μg/mL) incubated 1 h at 37 °C with ACS with or without ColG-FNIII12-14; release into PBS at 37 °C, supernatant read and PBS refreshed at 36, 60, 120 h

Molecule: ColG-FNIII12-14 protein fragment
- percent of the absorbed fragment remaining bound after 120 h [1]: 43%

Molecule: ColH-FNIII12-14 protein fragment
- percent of the absorbed fragment remaining bound after 120 h [2]: 10%
- amount of fragment remaining on the ACS after 120 h (pmol per 1 mg of collagen) [3]: 90

Molecule: PLGF-FNIII12-14 protein fragment
- percent of the absorbed fragment remaining bound after 120 h [1]: 10%

B1: recombinant human bone morphogenic protein 2, tagged with Dylight 488 (ligand)
chain: QAKHKQRKRLKSSCKRHPLYVDFSDVGWNDWIVAPPGYHAFYCHGECPFPLADHLNSTNHAIVQTLVNSVNSKIPKACCVPTELSAISMLYLDENEKVVLKNYQDMVVEGCGCR
modifications: Dylight 488 (amino reactive NHS ester dye)
- percent of rhBMP-2 absorbed [4]: 30 to 32%
- percent of the absorbed rhBMP-2 retained after 120 h [4]: 33%
